From the supplement of paper PMC10567573

B1: ZNF649 (parent)
chain: MTKAQESLTLEDVAVDFTWEEWQF

Variants of: B1
Assay: protein stability index of a GFP-peptide fusion (GPS, HEK-293T) (PSI 1-6); higher = more stable
Conditions: c terminus: a fixed tail appended
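Note: lentivirally expressed fusions sorted by FACS into six bins by GFP to DsRed ratio, PSI derived from sequencing read proportions per bin multiplied by bin number.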

In order of falling protein stability index:
1. MTKAQESLTLEDVAVDETWEEWQF  5.01
2. MTKAQESLTLEDVAVDDTWEEWQF  4.75
3. MTKAQESLTLEDVAVDKTWEEWQF  4.72
4. MTKAQESLTLEDSAVDFTWEEWQF  4.69
5. MTKAQESLTLEDVAVDSTWEEWQF  4.52
6. MTKAQESLTLEDVAVDQTWEEWQF  4.51
7. MTKAQESLTLEDVAVDPTWEEWQF  4.43
8. MTKAQESLTLEDVAVDATWEEWQF  4.42
9. MTKAQESLTLEDNAVDFTWEEWQF  4.33
10. MTKAQESLTLEDVAVDITWEEWQF  4.25
11. MTKAQESLTLEDVAVDFTWEEWAF  4.2
12. MTKAQESLTLEDQAVDFTWEEWQF  4.18
13. MTKAQESLTLEDVAVDMTWEEWQF  4.17
14. MTKAQESLTLEDPAVDFTWEEWQF  4.15
15. MTKAQESLTLEDTAVDFTWEEWQF  4.11
16. MTKAQESLTLEDVAVDFDWEEWQF  4.1
17. MTKAQESLTLEDVAVDCTWEEWQF  4.1
18. MTKAQESLTLEDVAVDVTWEEWQF  4.05
19. MTKAQESLTLEDVAVDLTWEEWQF  4.03
20. MTKAQESLTLEDVAVPFTWEEWQF  4.02
21. MTKAQESLTLEDVAVDTTWEEWQF  3.95
22. MTKAQESLTLEDVAVDHTWEEWQF  3.94
23. MTKAQESLTLEDVAVDFAWEEWQF  3.87
24. MTKAQESLTLEDVAVDGTWEEWQF  3.81
25. MTKAQESLTLEDVAVNFTWEEWQF  3.77
26. MTKAQESLTLEDVAVDYTWEEWQF  3.76
27. MTKAQESLTLEDVAVDNTWEEWQF  3.64
28. MTKAQESLTLEDVAVDRTWEEWQF  3.61
29. MTKAQESLTLEDVAVDFTWEEWRF  3.56
30. MTKAQESLTLEDMAVDFTWEEWQF  3.54
31. MTKAQESLTLEDVAVDFTWEEWDF  3.51
32. MTKAQESLTLEDVAVDFNWEEWQF  3.47
33. MTKAQESLTLEDVAVDFTWEEWEF  3.46
34. MTKAQESLTLEDRAVDFTWEEWQF  3.45
35. MTKAQESLTLEDVAVDFGWEEWQF  3.37
36. MTKAQESLTLEDVAVDFTWVEWQF  3.37
37. MTKAQESLTLEDVAVAFTWEEWQF  3.34
38. MTKAQESLTLEDVAVDFEWEEWQF  3.32
39. MTKAQESLTLEDVAVDWTWEEWQF  3.31
40. MTKAQESLTLEDVAVDFTWEEWKF  3.28
41. MTKAQESLTLEDVAVHFTWEEWQF  3.23
42. MTKAQESLTLEDLAVDFTWEEWQF  3.23
43. MTKAQESLTLEDVAVDFTWEEWPF  3.22
44. MTKAQESLTLEDYAVDFTWEEWQF  3.17
45. MTKAQESLTLEDVAVDFPWEEWQF  3.16
46. MTKAQESLTLEDVAVDFSWEEWQF  3.15
47. MTKAQESLTLEDVAVDFTWDEWQF  3.14
48. MTKAQESLTLEDVAVGFTWEEWQF  3.13
49. MTKAQESLTLEDVAVCFTWEEWQF  2.89
50. MTKAQESLTLEDVAVDFTWEEWGF  2.87
51. MTKAQESLTLEDVAVDFTWPEWQF  2.76
52. MTKAQESLTLEDVAVDFQWEEWQF  2.75
53. MTKAQESLTLEDVAVDFTWEEWNF  2.74
54. MTKAQESLTLEDVAVDFTWEEWMF  2.72
55. MTKAQESLTLEDVAVDFTWEEWFF  2.66
56. MTKAQESLTLEDVAVDFTWSEWQF  2.65
57. MTKAQESLTLEDVAVYFTWEEWQF  2.64
58. MTKAQESLTLEDVAVDFCWEEWQF  2.64
59. MTKAQESLTLEDVAVDFHWEEWQF  2.63
60. MTKAQESLTLEDVAVDFTWMEWQF  2.57
61. MTKAQESLTLEDVAVIFTWEEWQF  2.52
62. MTKAQESLTLEDVAVDFTWKEWQF  2.51
63. MTKAQESLTLEDVAVKFTWEEWQF  2.5
64. MTKAQESLTLEDVAVDFTWTEWQF  2.5
65. MTKAQESLTLEDVAVDFKWEEWQF  2.48
66. MTKAQESLTLEDVAVDFTWCEWQF  2.48
67. MTKAQESLTLEDVAVDFTWAEWQF  2.48
68. MTKAQESLTLEDVAVDFIWEEWQF  2.41
69. MTKAQESLTLEDVAVDFTWNEWQF  2.41
70. MTKAQESLTLEDVAVDFMWEEWQF  2.39
71. MTKAQESLTLEDWAVDFTWEEWQF  2.36
72. MTKAQESLTLEDVAVMFTWEEWQF  2.34
73. MTKAQESLTLEDVAVDFTWQEWQF  2.32
74. MTKAQESLTLEDVAVVFTWEEWQF  2.29
75. MTKAQESLTLEDVAVDFTWWEWQF  2.28
76. MTKAQESLTLEDVAVDFLWEEWQF  2.26
77. MTKAQESLTLEDVAVDFTWEEWCF  2.26
78. MTKAQESLTLEDVAVRFTWEEWQF  2.22
79. MTKAQESLTLEDVAVDFTWHEWQF  2.22
80. MTKAQESLTLEDVAVDFRWEEWQF  2.17
81. MTKAQESLTLEDVAVDFTWGEWQF  2.17
82. MTKAQESLTLEDVAVDFTWREWQF  2.06
83. MTKAQESLTLEDVAVDFTWEEWLF  2.05
84. MTKAQESLTLEDVAVDFTWEEWHF  2.02
85. MTKAQESLTLEDVAVDFTWYEWQF  2
86. MTKAQESLTLEDVAVDFTWEEWIF  1.97
87. MTKAQESLTLEDVAVDFVWEEWQF  1.95
88. MTKAQESLTLEDVAVDFTWIEWQF  1.87
89. MTKAQESLTLEDVAVEFTWEEWQF  1.85
90. MTKAQESLTLEDVAVDFFWEEWQF  1.79
91. MTKAQESLTLEDVAVDFWWEEWQF  1.51
92. MTKAQESLTLEDVAVDFTWFEWQF  1.44
93. MTKAQESLTLEDVAVDFYWEEWQF  1.36
94. MTKAQESLTLEDVAVDFTWLEWQF  1.3
